According to paper PMC3320896:

Molecular target: recombinant Hepatitis B surface antigen (rHBsAg) virus-like particle, S form of HBsAg (Hepatitis B virus)
Assay: cryo-EM structure; redox-treated rHBsAg VLPs in vitrified ice; 3D reconstruction with octahedral symmetry imposed, nominal resolution ~1.5 nm (FSC0.5); monomers counted from the volume of segmented protein density

**Q.** “recombinant Hepatitis B surface antigen (rHBsAg) virus-like particle, S form of HBsAg (natural protein)” was tested. Which stoichiometry N (protein monomers per particle) did it give?
**A.** 96
